Consider 2 molecules from patent US20200270335A1 (Biogen, published 2020).

For assay [1], the target named is LRP6 of Super TopFlash (STF, HEK293) cells (UniProt O75581 20-1613, limits assumed). Description: cell-based or functional assay.
Assay [2] concerns the target T1, human LRP6 on huLRP6-expressing BaF3 cells (human, UniProt O75581 20-1613).
T1 construct: whole, on cells; also called Lipoprotein receptor like protein 6
Description: FACS LRP6 binding assay, competition with anti-LRP6 antibody (FIG. 50).

T1 sequence (O75581 20-1613): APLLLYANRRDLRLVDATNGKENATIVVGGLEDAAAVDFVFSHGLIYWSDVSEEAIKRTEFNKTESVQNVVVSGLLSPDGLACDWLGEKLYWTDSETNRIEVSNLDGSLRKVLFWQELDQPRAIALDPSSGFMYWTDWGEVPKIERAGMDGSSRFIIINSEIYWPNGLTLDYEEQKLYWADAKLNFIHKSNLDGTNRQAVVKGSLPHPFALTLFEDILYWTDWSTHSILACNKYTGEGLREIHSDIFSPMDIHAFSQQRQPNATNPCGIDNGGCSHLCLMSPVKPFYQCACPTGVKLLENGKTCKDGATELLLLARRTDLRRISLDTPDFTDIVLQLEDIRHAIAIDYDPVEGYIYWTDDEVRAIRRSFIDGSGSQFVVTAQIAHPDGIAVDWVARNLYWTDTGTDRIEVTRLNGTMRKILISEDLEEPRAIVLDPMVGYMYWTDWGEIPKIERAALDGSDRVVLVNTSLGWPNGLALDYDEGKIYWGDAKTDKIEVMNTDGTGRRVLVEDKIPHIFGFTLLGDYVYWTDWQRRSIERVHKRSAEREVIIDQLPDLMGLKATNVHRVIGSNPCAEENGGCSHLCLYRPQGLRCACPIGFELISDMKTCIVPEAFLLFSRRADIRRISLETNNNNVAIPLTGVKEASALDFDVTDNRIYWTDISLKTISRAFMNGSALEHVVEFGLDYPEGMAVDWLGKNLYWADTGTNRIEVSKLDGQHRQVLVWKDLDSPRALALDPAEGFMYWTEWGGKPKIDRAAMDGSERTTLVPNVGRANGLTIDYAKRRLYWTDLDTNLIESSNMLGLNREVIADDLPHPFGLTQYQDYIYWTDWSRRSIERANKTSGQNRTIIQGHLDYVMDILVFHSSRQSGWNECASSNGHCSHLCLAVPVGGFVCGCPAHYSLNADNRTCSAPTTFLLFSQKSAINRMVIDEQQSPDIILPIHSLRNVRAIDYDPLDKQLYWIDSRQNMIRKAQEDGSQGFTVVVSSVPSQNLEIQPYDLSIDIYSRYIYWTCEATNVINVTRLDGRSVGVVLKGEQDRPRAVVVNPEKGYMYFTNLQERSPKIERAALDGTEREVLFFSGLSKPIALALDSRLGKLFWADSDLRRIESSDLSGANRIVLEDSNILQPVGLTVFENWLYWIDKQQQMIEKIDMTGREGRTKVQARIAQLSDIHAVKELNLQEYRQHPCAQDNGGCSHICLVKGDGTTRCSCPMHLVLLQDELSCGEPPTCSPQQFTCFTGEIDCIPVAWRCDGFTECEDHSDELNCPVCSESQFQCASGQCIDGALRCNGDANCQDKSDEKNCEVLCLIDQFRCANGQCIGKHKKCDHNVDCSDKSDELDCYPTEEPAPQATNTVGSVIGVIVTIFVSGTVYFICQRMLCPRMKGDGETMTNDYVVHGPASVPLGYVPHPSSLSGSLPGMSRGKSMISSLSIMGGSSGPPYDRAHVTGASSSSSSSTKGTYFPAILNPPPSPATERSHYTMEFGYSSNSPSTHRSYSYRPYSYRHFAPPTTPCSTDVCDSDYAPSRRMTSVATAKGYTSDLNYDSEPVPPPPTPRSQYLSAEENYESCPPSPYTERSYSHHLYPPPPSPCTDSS
Sequence of LRP6 of Super TopFlash (STF, HEK293) cells (O75581 20-1613 limits assumed): as the sequence (O75581 20-1613) above

B1: untagged murine DKK2-C2 from E. coli (ligand)
chain: GSMPHIKGHEGDPCLRSSDCIDGFCCARHFWTKICKPVLHQGEVCTKQRKKGSHGLEIFQRCDCAKGLSCKVWKDATYSSKARLHVCQKI
notes: also called E. coli DKK2 C2; non-PEGylated untagged DKK2-C2
Consider B1, for which, in assay [1], the “IC50 in the Wnt signaling Super Top Flash (STF) activity assay” value was about 20 nM. Moreover, the IC50 in assay [2] came out at 20 nM.

B2: PEGylated untagged murine DKK2-C2 from E. coli (ligand)
chain: GSMPHIKGHEGDPCLRSSDCIDGFCCARHFWTKICKPVLHQGEVCTKQRKKGSHGLEIFQRCDCAKGLSCKVWKDATYSSKARLHVCQKI
modifications: monoPEGylated with 20k-PEG-2-methyl proprionaldehyde and sodium cyanoborohydride; site not stated
notes: also called monoPEGylated DKK2 C2; PEGylated version of DKK2 C2
B2 yielded an IC50 in assay [2] of 326 nM.
